According to doi:10.1101/2022.01.31.478465 (bioRxiv, 2022):

Molecular target: T1, AtPRP40b, recombinant (A. thaliana, UniProt F4JCC1 1-992)
T1 sequence: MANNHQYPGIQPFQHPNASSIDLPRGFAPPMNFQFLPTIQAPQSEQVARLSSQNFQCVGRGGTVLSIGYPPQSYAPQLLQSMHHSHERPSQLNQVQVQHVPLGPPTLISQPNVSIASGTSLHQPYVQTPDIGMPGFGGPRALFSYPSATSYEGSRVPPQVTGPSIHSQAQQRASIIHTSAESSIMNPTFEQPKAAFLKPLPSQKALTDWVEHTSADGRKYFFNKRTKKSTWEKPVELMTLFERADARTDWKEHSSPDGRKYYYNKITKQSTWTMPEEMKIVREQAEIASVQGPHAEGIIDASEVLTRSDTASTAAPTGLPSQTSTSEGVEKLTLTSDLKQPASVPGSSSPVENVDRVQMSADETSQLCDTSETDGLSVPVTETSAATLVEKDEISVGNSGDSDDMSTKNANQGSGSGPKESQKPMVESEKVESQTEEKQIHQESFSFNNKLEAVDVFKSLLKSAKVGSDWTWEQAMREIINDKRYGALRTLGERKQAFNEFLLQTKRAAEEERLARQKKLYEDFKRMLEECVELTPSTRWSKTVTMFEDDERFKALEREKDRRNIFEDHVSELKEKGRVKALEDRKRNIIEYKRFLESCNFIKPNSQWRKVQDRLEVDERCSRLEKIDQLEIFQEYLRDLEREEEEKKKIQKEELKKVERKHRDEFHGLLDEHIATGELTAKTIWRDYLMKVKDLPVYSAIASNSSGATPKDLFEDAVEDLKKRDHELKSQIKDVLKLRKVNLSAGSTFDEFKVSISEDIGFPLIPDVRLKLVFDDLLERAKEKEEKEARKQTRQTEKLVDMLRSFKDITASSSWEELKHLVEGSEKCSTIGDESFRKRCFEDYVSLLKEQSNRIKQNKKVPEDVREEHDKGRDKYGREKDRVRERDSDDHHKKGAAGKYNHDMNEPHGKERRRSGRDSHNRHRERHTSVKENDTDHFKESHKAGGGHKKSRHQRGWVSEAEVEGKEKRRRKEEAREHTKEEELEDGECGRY
Assay: pull-down

binding result: binds
B1: SERRATE (SE), full length, recombinant (natural protein, A. thaliana, UniProt Q9ZVD0 1-720, looked up)
chain: MADVNLPPSDSVDNRLPEKSTSSSPPPPPPSSSLPQQEQEQDQQQLPLRRERDSRERRDERDIERPPPNRRERDRSPLPPPRRDYKRRPSLSPPPPYRDRRHSPPQRRSPPQKRYRRDDNGYDGRRGSPRGGYGPPDRRFGYDHGGGYDREMGGRPGYGDERPHGRFMGRYQDWEGGRGGYGDASNSGNPQRDGLMSYKQFIQELEDDILPSEAERRYQEYKSEYITTQKRAFFNTHKEEDWLKNKYHPTNLLSVIERRNDLAQKVAKDFLLDLQSGTLDLGPAVTALNKSGRTSEPNSEDEAAGVGKRKRHGMGGAKENELLSAAPKAPSFTSDPKRILTDVEQTQALVRKLDSEKKIEENVLQGSETEKSGREKLHSGSTGPVVIIRGLTSVKGLEGVELLDTLVTYLWRVHGLDYYGKVETNEAKGLRHVRAEGKVSDAKGDENESKFDSHWQERLKGQDPLEVMAAKEKIDAAATEALDPHVRKIRDEKYGWKYGCGAKGCTKLFHAAEFVYKHLKLKHTELVTELTTKVREELYFQNYMNDPNAPGGQPATQQSGPRDRPIRRKPSMENRLRDDRGGRRERDGRANGNDRNDRSEDQQRGDNDGGNPGEVGYDAFGGQGGVHVPPFLSDINPPPMLMPVPGAGPLGPFVPAPPEVAMQMFRDPSGPNPPFEGSGRGGPAPFLLSPAFRQDPRRLRSYQDLDAPEEEVTVIDYRSL
